Reference: publication PMC7588069
One block for each molecule: values may come before it.

Biological target: GST fusion with the receptor interaction domains (RID) of NCoRδ (region equivalent to amino acids 1817–2453 of NCoRω)
Assay: pull-down; GST fusion protein (~50 ng) immobilised on ~10 μl glutathione-agarose; 35S-radiolabeled in vitro translated nuclear receptor (2–5 μl TnT product) in 120 μl HEMG buffer (4 mM HEPES pH 7.8, 0.2 mM EDTA, 5 mM MgCl2, 10% glycerol, 100 mM KCl, 0.1% Nonidet P-40, 1.5 mM DTT) with 10 mg/ml BSA; 3 hr at 4°C; eluted with 10 mM glutathione, SDS-PAGE, PhosphorImager

Molecule: Thyroid Hormone Receptor α (from UniProt P10827-2 1-410)
relative binding to NCoRδ versus NCoRω (ratio (NCoRδ versus NCoRω)): 0.42

B2: Peroxisome Proliferator Activated Receptor α (receptor)
chain: MVDTESPLCPLSPLEAGDLESPLSEEFLQEMGNIQEISQSIGEDSSGSFGFTEYQYLGSCPGSDGSVITDTLSPASSPSSVTYPVVPGSVDESPSGALNIECRICGDKASGYHYGVHACEGCKGFFRRTIRLKLVYDKCDRSCKIQKKNRNKCQYCRFHKCLSVGMSHNAIRFGRMPRSEKAKLKAEILTCEHDIEDSETADLKSLAKRIYEAYLKNFNMNKVKARVILSGKASNNPPFVIHDMETLCMAEKTLVAKLVANGIQNKEAEVRIFHCCQCTSVETVTELTEFAKAIPGFANLDLNDQVTLLKYGVYEAIFAMLSSVMNKDGMLVAYGNGFITREFLKSLRKPFCDIMEPKFDFAMKFNALELDDSDISLFVAAIICCGDRPGLLNVGHIEKMQEGIVHVLRLHLQSNHPDDIFLFPKLLQKMADLRQLVTEHAQLVQIIKKTESDAALHPLLQEIYRDMY
modifications: 35S-radiolabeled
relative binding to NCoRδ versus NCoRω (ratio (NCoRδ versus NCoRω)): 0.79

The remaining lines, values ahead:

relative binding to NCoRδ versus NCoRω (ratio (NCoRδ versus NCoRω)): 0.88
Molecule: Peroxisome Proliferator Activated Receptor γ (from UniProt P37231 1-505)

relative binding to NCoRδ versus NCoRω (ratio (NCoRδ versus NCoRω)): 0.51
B1: Liver X Receptor α (receptor)
chain: MSLWLGAPVPDIPPDSAVELWKPGAQDASSQAQGGSSCILREEARMPHSAGGTAGVGLEAAEPTALLTRAEPPSEPTEIRPQKRKKGPAPKMLGNELCSVCGDKASGFHYNVLSCEGCKGFFRRSVIKGAHYICHSGGHCPMDTYMRRKCQECRLRKCRQAGMREECVLSEEQIRLKKLKRQEEEQAHATSLPPRASSPPQILPQLSPEQLGMIEKLVAAQQQCNRRSFSDRLRVTPWPMAPDPHSREARQQRFAHFTELAIVSVQEIVDFAKQLPGFLQLSREDQIALLKTSAIEVMLLETSRRYNPGSESITFLKDFSYNREDFAKAGLQVEFINPIFEFSRAMNELQLNDAEFALLIAISIFSADRPNVQDQLQVERLQHTYVEALHAYVSIHHPHDRLMFPRMLMKLVSLRTLSSVHSEQVFALRLQDKKLPPLLSEIWDVHE
modifications: 35S-radiolabeled

relative binding to NCoRδ versus NCoRω (ratio (NCoRδ versus NCoRω)): 0.35
B3: Farnesoid X Receptor (receptor)
chain: MVMQFQGLENPIQISPHCSCTPSGFFMEMMSMKPAKGVLTEQVAGPLGQNLEVEPYSQYSNVQFPQVQPQISSSSYYSNLGFYPQQPEEWYSPGIYELRRMPAETLYQGETEVAEMPVTKKPRMGASAGRIKGDELCVVCGDRASGYHYNALTCEGCKGFFRRSITKNAVYKCKNGGNCVMDMYMRRKCQECRLRKCKEMGMLAECMYTGLLTEIQCKSKRLRKNVKQHADQTVNEDSEGRDLRQVTSTTKSCREKTELTPDQQTLLHFIMDSYNKQRMPQEITNKILKEEFSAEENFLILTEMATNHVQVLVEFTKKLPGFQTLDHEDQIALLKGSAVEAMFLRSAEIFNKKLPSGHSDLLEERIRNSGISDEYITPMFSFYKSIGELKMTQEEYALLTAIVILSPDRQYIKDREAVEKLQEPLLDVLQKLCKIHQPENPQHFACLLGRLTELRTFNHHHAEMLMSWRVNDHKFTPLLCEIWDVQ
modifications: 35S-radiolabeled
